Test results as given in publication PMC3115558 (Biochemistry, 2011).
Ends that are not written are not given here.

Target: PP1α catalytic subunit (New England BioLabs) (UniProt P62139 1-330)
Test: SPR

PP1α catalytic subunit (New England BioLabs), sequence (P62139 whole entry): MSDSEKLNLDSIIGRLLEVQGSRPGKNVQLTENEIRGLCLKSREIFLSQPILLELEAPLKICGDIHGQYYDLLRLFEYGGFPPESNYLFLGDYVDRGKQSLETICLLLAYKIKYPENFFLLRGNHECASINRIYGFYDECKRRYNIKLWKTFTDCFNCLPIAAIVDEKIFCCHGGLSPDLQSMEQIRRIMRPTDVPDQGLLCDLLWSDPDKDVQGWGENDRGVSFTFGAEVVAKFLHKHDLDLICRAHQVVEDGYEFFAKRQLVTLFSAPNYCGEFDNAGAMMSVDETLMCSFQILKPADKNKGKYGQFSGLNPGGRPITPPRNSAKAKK

Kd: 341 nM
B1: Biotinylated AKAP79 synthetic peptide, amino acids 25-49, mutant (AxxAxA) (peptide)
chain: AERQKEKASMLCAKRAKAAAKALKP
modifications: also: biotinylated, position not given here
